Test results reported in the RNAGym collection of RNA variant scans (doi:10.1073/pnas.2313332121).
Fewer inactive variants are shown than the library holds.

B1: TPR 5TU (parent)
chain: GGAUCUUCUCGAUCUAACAAAAAAGACAAAUCUGCCACAAAGCUUGAGAGCAUCUUCGGAUGCAGAGGCGGCAGCCUUCGGUGGCGCGAUAGCGCCAACGUUCUCAACUAUGACACGCAAAACGCGUGCUCCGUUGAAUGGAGUUUAUCAUG

Variants of: B1
Assay: polymerase ribozyme fitness, log enrichment relative to wild type (log ratio); higher = more active; in vitro selection for triplet polymerase activity
In short: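 In triplicate, a single round of in vitro selection was run on each mutant library, PCR-built and transcribed, covering one subunit of a heterodimeric triplet polymerase ribozyme. Frozen incubation at −7 °C followed annealing with a biotinylated primer, partner subunit and triplets, and extended constructs were then gel-excised, streptavidin-captured and taken through RT-PCR. Fitness is the logarithm of genotype enrichment over wild-type enrichment, from inverse-variance-weighted replicate averages of Illumina-sequenced inputs and outputs. […] only genotypes with ≥10 input reads and ≥1 read per output were kept.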

Variant	polymerase ribozyme fitness (log ratio)
C8G A21G C27A A73C G92C U104G A150U	≤ -4.2
C8U G42C C85A	≤ -4.2
C8G A23C A30U G59A C95A A119U G141C	≤ -4.2
U6G G92U C105A C114G A142U	≤ -4.2
C8U A22U C51U G62A C93G C103A C105G	≤ -4.2
C8G A16U A37C A73C G84A U139C	≤ -4.2
C8G G58A	-3.1
U6G A19G U44A U82C C95U U139G	≤ -4.2
U9A A47G C69A G94A C96G U101C A121C A138G	≤ -4.2
U6G A16U C38U G83C U139A G141A	≤ -4.2
U6C G50C G59A G68U A137C	≤ -4.2
U7A G11C A52G A89C A91G C95U U111C C131U	≤ -4.2
C8A U15C C75A U109C	≤ -4.2
C8U C32A G58C C93G G94U C95U G117U A138U	≤ -4.2
C8U C51A A60U C87U	≤ -4.2
C8U U13C C14A A20U G50C C63A G71A C79G G92U A119C G141A	≤ -4.2
U7A A30U C32U C43U A60U C96A A107U	-3.92
C8U A20C G50C G71A C96A A98G C114U U148C	≤ -4.2
U7G U55A A91U U130A G141C	≤ -4.2
C8A G136A	-3.96
C8G A29G G50U C85U C125A	≤ -4.2

Variant	polymerase ribozyme fitness (log ratio)
C8A A29C A37C A47U A119G	≤ -4.2
C8A U9C C18A A19G G58U G84A U144C A147C	≤ -4.2
C8G A39C U77C U104G A115C	≤ -4.2
U6G A28U C38U A66G C95G A120U A150U	≤ -4.2
U7A G42A C85U A113U C116U C125G	≤ -4.2
U7G C18U A30U G59U U77A G83C A138C	≤ -4.2
U7G C72U C87A A98U A138C	≤ -4.2
U7A C51U	-3.25
U6G U53A G80U	≤ -4.2
C8U A17G A39G G84U C116A C118G U139C	≤ -4.2
U6G A12U	-0.722
C8U C85U	-3.19
C8U C85A	-2.75
U6G A40U A115G	-1.66
U6G C35U G58C A73G G140U	≤ -4.2
U6G A73G	-0.521
U6G A73C	-2.87
C8A C54U	-3.64
U6G A39G A49C	≤ -4.2
C8G A21C U77A G92A C118A G136U	≤ -4.2
C8U G84A	-2.87

Variant	polymerase ribozyme fitness (log ratio)
U9A C87U	-2.96
U7A C93U A115G	≤ -4.2
U7A C54A G58C G92C A107U C116A	≤ -4.2
U6G A73G C87U G136U	-2.92
U7G G25A A28U C54A C85U U148G C149U	≤ -4.2
C8A A19C C35G A52C C87G	≤ -4.2
C8A U9G A12C A29U A30U G88U C93A A107G	≤ -4.2
U6G G11A A19C A21C A24G C36G U56A U82A A142C	≤ -4.2
U7G A17U A52C C85U C116A	-3.83
C8U A19G C79U C85G	≤ -4.2
C8A G83C C85G G140C A150C	≤ -4.2
U7A C14G U31C G86A	≤ -4.2
U6G C14A C79A U145C	≤ -4.2
U7G C51U G88C G92U C95U G100U	≤ -4.2
C8A U33C U44A A52U C85U U104A A106G C125G G152U	≤ -4.2
U6G C10G G68A C69U G84A	≤ -4.2
C8A A40U G71U C85G	≤ -4.2
U7A A22U U44A C51U G67A G94C C99U G141C	≤ -4.2
U6C U55G	-0.825
U7A G11A C32U C35G A41U U55A C87G C95A C114U	≤ -4.2
U6G A21U C93U U127G	-3.85

Variant	polymerase ribozyme fitness (log ratio)
C8A G141A	-3.13
U6C G71A G92A A97G G141U	≤ -4.2
U9A G83A	-4.06
U6C G74U U102A C123A	≤ -4.2
U6G A12U G42C C76U C96G U134G U146G	≤ -4.2
C8A G67U U77A G83U C87G U134A G141C U144G	≤ -4.2
U6G U15A C95G C96U U101G C103A C131A C149A	≤ -4.2
U6G C96A A122U	-0.578
C8U G84U G117U G140C U146G	≤ -4.2
U9A A12U C32U A37U G92C	≤ -4.2
U6G A26U A52G G141U U145G	≤ -4.2
U7A A64U G74A C79A C85A G94U U130G	≤ -4.2
C8U U61A C95A U146G	≤ -4.2
C8A C76A G88U G94U C132G U139C	≤ -4.2
C8A C79U A120C C125G A142U U146C	≤ -4.2
U6G C35U A91G A98G	-4.08
U6C C10A C14G A49C C57U A91C C114U	≤ -4.2
C8U U15G U44A C54U G84A U101G A110U A115G G133U	≤ -4.2
C8G G70C G80A A91U U104C A120U	≤ -4.2
C8G C10A C93U A106U A107U C108U U148G	≤ -4.2
U7G U55A	-3.28
